Experimental data published in patent publication US20140010832A1 (EPFL TTO, published 2014).

B1: PlGF2 (ligand)
chain: PAVPPQQWALSAGNGSSEVEVVPFQEVWGRSYCRALERLVDVVSEYPSEVEHMFSPSCVSLLRCTGCCGDENLHCVPVETANVTMQLLKIRSGDRPSYVELTFSQHVRCECRPLREKMKPERRRPKRGKRRREKQRPTDCHLCGDAVPRR
notes: also called PIGF-2; placenta growth factor 2
B2: human BMP-2-PlGF2123-144* (ligand)
chain: QAKHKQRKRLKSSCKRHPLYVDFSDVGWNDWIVAPPGYHAFYCHGECPFPLADHLNSTNHAIVQTLVNSVNSKIPKACCVPTELSAISMLYLDENEKVVLKNYQDMVVEGCGCRRRPKGRGKRRREKQRPTDSHL
notes: Inserted at the C-terminus of BMP-2
B3: human VEGF-A121-PlGF2123-144 (ligand)
chain: APMAEGGGQNHHEVVKFMDVYQRSYCHPIETLVDIFQEYPDEIEYIFKPSCVPLMRCGGCCNDEGLECVPTEESNITMQIMRIKPHQGQHIGEMSFLQHNKCECRPKKDRARQERRRPKGRGKRRREKQRPTDCHLCDKPRR
B4: human PDGF-BB-PlGF2123-144 (ligand)
chain: SLGSLTIAEPAMIAECKTRTEVFEISRRLIDRTNANFLVWPPCVEVQRCSGCCNNRNVQCRPTQVQLRPVQVRKIEIVRKKPIFKKATVTLEDHLACKCETVAAARPVTRRRPKGRGKRRREKQRPTDCHL

Target: Collagen I
Sequence (P02452 162-1218, chain 1 of 2): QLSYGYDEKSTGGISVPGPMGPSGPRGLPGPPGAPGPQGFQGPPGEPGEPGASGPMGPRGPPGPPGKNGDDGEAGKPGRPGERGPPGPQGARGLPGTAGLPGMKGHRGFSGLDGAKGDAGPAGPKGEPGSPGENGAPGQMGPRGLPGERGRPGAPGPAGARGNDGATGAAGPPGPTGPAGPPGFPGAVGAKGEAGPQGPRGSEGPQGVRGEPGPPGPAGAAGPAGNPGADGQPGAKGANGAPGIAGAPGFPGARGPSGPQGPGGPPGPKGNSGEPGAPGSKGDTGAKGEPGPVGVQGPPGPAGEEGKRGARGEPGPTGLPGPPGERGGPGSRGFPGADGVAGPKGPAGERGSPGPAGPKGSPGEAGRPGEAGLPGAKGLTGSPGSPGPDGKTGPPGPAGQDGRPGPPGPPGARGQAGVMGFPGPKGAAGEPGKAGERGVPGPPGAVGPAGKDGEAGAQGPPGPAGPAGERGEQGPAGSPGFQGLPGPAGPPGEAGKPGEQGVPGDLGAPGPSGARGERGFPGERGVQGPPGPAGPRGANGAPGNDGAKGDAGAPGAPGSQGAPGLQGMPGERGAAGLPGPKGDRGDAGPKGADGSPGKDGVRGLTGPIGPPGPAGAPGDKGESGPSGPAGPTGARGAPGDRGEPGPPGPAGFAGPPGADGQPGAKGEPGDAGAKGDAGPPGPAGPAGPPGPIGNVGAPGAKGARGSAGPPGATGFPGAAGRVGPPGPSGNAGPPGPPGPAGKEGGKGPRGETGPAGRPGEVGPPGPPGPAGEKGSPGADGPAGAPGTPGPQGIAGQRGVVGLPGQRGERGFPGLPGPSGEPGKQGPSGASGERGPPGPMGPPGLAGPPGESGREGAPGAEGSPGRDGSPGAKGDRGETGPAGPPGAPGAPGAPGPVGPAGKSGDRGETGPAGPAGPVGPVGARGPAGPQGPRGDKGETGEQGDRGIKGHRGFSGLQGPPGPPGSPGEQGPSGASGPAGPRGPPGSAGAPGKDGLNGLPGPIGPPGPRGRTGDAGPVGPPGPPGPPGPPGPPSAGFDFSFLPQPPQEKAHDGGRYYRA
Sequence (P08123 80-1119, chain 2 of 2, further chain): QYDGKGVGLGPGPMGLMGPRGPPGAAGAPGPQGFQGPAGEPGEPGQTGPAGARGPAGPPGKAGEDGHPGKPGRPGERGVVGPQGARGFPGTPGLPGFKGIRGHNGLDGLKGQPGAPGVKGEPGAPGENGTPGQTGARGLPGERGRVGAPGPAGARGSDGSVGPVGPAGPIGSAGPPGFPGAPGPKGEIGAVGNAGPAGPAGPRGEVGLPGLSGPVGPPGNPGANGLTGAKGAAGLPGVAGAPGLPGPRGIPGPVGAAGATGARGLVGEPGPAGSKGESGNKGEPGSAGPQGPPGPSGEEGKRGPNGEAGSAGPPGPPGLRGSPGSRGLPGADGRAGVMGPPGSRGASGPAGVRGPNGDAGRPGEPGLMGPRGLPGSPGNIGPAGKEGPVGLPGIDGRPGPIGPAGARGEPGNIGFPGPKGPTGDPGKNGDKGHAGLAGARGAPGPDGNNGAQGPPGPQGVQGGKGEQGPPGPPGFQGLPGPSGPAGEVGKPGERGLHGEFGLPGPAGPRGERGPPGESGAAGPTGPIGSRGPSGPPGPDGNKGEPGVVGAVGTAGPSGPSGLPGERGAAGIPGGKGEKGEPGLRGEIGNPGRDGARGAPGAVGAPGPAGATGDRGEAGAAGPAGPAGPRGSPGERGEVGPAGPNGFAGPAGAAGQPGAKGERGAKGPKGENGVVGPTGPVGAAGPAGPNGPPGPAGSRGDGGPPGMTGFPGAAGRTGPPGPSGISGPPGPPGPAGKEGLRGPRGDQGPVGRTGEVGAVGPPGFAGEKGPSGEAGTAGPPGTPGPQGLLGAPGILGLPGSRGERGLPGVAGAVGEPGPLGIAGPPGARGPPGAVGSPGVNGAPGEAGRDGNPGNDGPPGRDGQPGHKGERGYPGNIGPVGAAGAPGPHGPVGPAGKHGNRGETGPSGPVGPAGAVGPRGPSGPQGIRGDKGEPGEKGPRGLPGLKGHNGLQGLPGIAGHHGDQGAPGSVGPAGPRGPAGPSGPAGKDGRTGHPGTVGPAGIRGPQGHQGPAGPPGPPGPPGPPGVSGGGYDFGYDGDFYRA
Assay: ELISA; cytokine coated, ECM protein 0.02 to 320 nM, KD by non-linear fit

Row | Binder | Kd [nM]
1 | B1 | 126
2 | B2 | 102
3 | B3 | 124
4 | B4 | 96.3
